Here are results for 36 sequences from the supplement of paper PMC10567573.

± gives the standard deviation.

This data set is described as follows: protein stability index of a GFP-peptide fusion (GPS, HEK-293T) (PSI 1-6); higher = more stable. The note with it: c terminus: a fixed tail appended.
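Further: 24-mer peptide tiles fused after GFP, lentivirally expressed, FACS-sorted into six equal bins by GFP/DsRed ratio, decoded by Illumina sequencing, PSI is the read-weighted mean bin number.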

Turning to AAAAKAFKHPSIRNPVSLVVTRLV [ADAMTS4], the protein stability index reads like this: (treatment: DMSO) 2.22 ± 0.49; (treatment: MLN4924 1 uM, 8 h) 2.67 ± 0.48.
With AAAAMYTFLPDNFSPAKPKPSKEL [MYORG], the protein stability index by setting is: (treatment: DMSO) 3.62 ± 0.11; (treatment: MLN4924 1 uM, 8 h) 3.59 ± 0.3.
The like results for AAAQAPENFQEGKDMSESQDEVPD [TAF7L] were, in that order, 5.62 ± 0.24 and 5.58 ± 0.23.
Taken in the same sequence, the figures for AAGVAAAFGAPIGGTLFSLEEGSS [CLCN6] were 3.94 ± 0.09 and 3.97 ± 0.17.
Taken in the same sequence, the figures for AALIEAIQDRLSNTLQTYIRCRHP [VDR] were 2.49 ± 0.5 and 2.54 ± 0.32.
For AALLILFAASLLTVFAWLLQYARG [C2CD2L], the protein stability index is 2.74 ± 0.46 (treatment: DMSO) and 3.15 ± 0.46 (treatment: MLN4924 1 uM, 8 h).
The like results for AALPPVPSPPAAPSVADNLLASSD [SERTAD1] were, in that order, 5.46 ± 0.14 and 5.35 ± 0.3.
Taken in the same sequence, the figures for AALQRSLAAALAQHSVPLQLELRA [TRADD] were 2.89 ± 1.2 and 2.46 ± 0.73.
In the case of AAQAAAAAHAAQAHRERNEFPEDP [PI4K2A], the protein stability index is 5.36 ± 0.35 (treatment: DMSO) and 5.5 ± 0.1 (treatment: MLN4924 1 uM, 8 h).
As to AARAGHVCTVQFLISKGANVNRTT [ANKRD17], the protein stability index reads like this: (treatment: DMSO) 1.83 ± 0.32; (treatment: MLN4924 1 uM, 8 h) 2.07 ± 0.21.
Taken in the same sequence, the figures for ACHPFLLGPPLVRKRIHDSRVAGF [TOR1AIP2] were 2.51 ± 0.39 and 2.5 ± 0.18.
Taken in the same sequence, the figures for ACMMTITFLPYTFSLMVTFPDVPL [TMEM175] were 3.1 ± 0.09 and 3.26 ± 0.33.
Taken in the same sequence, the figures for ADGRIEPGDMLLQVNEINFENMSN [DVL3] were 3.95 ± 0.33 and 4.36 ± 0.32.
As for ADLWYLFGDLSLSLVTVGKHLTAR [POMT2], the protein stability index amounted to 3.17 ± 0.74 (treatment: DMSO) and 2.56 ± 0.8 (treatment: MLN4924 1 uM, 8 h).
With ADQKLVIIKQIPVEQMTKEERQAA [NEK8], the protein stability index by setting is: (treatment: DMSO) 4.62 ± 0.24; (treatment: MLN4924 1 uM, 8 h) 4.61 ± 0.23.
The like results for AEAERLDVKAMGPLVLTEVLFNEK [EIF5] were, in that order, 4.01 ± 0.2 and 4.17 ± 0.24.
The like results for AEGSPGGPGDSQGRKRRQTSMTDF [CDKN1A] were, in that order, 5.23 ± 0.1 and 5.13 ± 0.22.
The like results for AEKWQKEKDRIKSFTTNEKAILEQ [TRIM29] were, in that order, 4.76 ± 0.21 and 4.8 ± 0.22.
Turning to AEMLGSVVGNWQYFFPVIFSKASS [MAGEA3], the protein stability index came out at 2.17 ± 0.31 (treatment: DMSO) and 2.21 ± 0.35 (treatment: MLN4924 1 uM, 8 h).
Taken in the same sequence, the figures for AEPLKEDKPVTGPRNKTENGLTPK [ATF6] were 5.5 ± 0.26 and 5.35 ± 0.18.
Taken in the same sequence, the figures for AESQGCNHEEDAGVRCNTPAMGLQ [LOXL2] were 5.34 ± 0.27 and 5.29 ± 0.3.
Sequence AEVAPEERENVAVAKLQESQPGNA [SDE2] showed a protein stability index (treatment: DMSO) of 5.49 ± 0.18 and a protein stability index (treatment: MLN4924 1 uM, 8 h) of 5.718 ± 0.056.
The like results for AFPSGHLLDAHILEWHDSLFQILS [ZNF511] were, in that order, 2.35 ± 0.33 and 2.29 ± 0.3.
Taken in the same sequence, the figures for AFQAFTNDLLEILEIDDLDAIVPA [CEP70] were 2.73 ± 0.22 and 2.73 ± 0.5.
Taken in the same sequence, the figures for AFVRMKQLIEEGYVGEPLVCEVQV [GFOD1] were 2.47 ± 0.77 and 2.55 ± 0.71.
In the case of AGELRKPTQEEWRQVVDILWSDPM [PPEF2], the protein stability index was 3 ± 0.53 (treatment: DMSO) and 2.97 ± 0.082 (treatment: MLN4924 1 uM, 8 h).
Taken in the same sequence, the figures for AGGAGRGEDEENREHRVRRIHVRR [KCTD13] were 5.19 ± 0.16 and 5.34 ± 0.28.
Taken in the same sequence, the figures for AIEIFRYSFYMLTCIDMDWKVLTW [HACD3] were 3.23 ± 0.4 and 2.57 ± 0.53.
As for AILQNHTDFKDKIVLDVGCGSGIL [CARM1], the protein stability index turned out to be 2.31 ± 0.21 (treatment: DMSO) and 2.34 ± 0.25 (treatment: MLN4924 1 uM, 8 h).
Taken in the same sequence, the figures for AISITAIAKYSDGASKAAGVFGFF [CMTM3] were 2.96 ± 0.88 and 2.78 ± 0.4.
The like results for AKGHVKLSDFGLCTGLKKAHRTEF [STK38L] were, in that order, 2.75 ± 0.21 and 2.61 ± 0.15.
In the case of AKNAAKDMNGKSLHGKAIKVEQAK [RBMY1A1], the protein stability index is 4.64 ± 0.23 (treatment: DMSO) and 5.01 ± 0.53 (treatment: MLN4924 1 uM, 8 h).
With AKNQSDEAKEAKGSGYEKLGPSRD [RTP4], the protein stability index is, setting by setting: (treatment: DMSO) 5.47 ± 0.16; (treatment: MLN4924 1 uM, 8 h) 5.34 ± 0.26.
Taken in the same sequence, the figures for AKQLFRKLNEQSPTRCTLEAGAMT [SEC22B] were 2.45 ± 0.21 and 2.6 ± 0.17.
The like results for ALENLQVEASCSVCLEYLKEPVII [TRIM39] were, in that order, 2.77 ± 1 and 2.95 ± 0.58.
The like results for ALGCVMYTMLLGRPPFETTNLKET [PLK2] were, in that order, 2.72 ± 0.74 and 2.79 ± 1.1.
